Measured values from IntAct's records for PubMed 24366543.

B1: Nuclear factor erythroid 2-related factor 2 (Mus musculus), Q60795 (parent)
chain: MMDLELPPPGLQSQQDMDLIDILWRQDIDLGVSREVFDFSQRQKDYELEKQKKLEKERQEQLQKEQEKAFFAQFQLDEETGEFLPIQPAQHIQTDTSGSASYSQVAHIPKQDALYFEDCMQLLAETFPFVDDHESLALDIPSHAESSVFTAPHQAQSLNSSLEAAMTDLSSIEQDMEQVWQELFSIPELQCLNTENKQLADTTAVPSPEATLTEMDSNYHFYSSISSLEKEVGNCGPHFLHGFEDSFSSILSTDDASQLTSLDSNPTLNTDFGDEFYSAFIAEPSDGGSMPSSAAISQSLSELLDGTIEGCDLSLCKAFNPKHAEGTMEFNDSDSGISLNTSPSRASPEHSVESSIYGDPPPGFSDSEMEELDSAPGSVKQNGPKAQPAHSPGDTVQPLSPAQGHSAPMRESQCENTTKKEVPVSPGHQKAPFTKDKHSSRLEAHLTRDELRAKALHIPFPVEKIINLPVDDFNEMMSKEQFNEAQLALIRDIRRRGKNKVAAQNCRKRKLENIVELEQDLGHLKDEREKLLREKGENDRNLHLLKRRLSTLYLEVFSMLRDEDGKPYSPSEYSLQQTRDGNVFLVPKSKKPDTKKN

Variants of: B1
Conditions: with keap1_mouse Keap1, Q9Z2X8
Chain of keap1_mouse Keap1, Q9Z2X8 (Q9Z2X8 whole entry): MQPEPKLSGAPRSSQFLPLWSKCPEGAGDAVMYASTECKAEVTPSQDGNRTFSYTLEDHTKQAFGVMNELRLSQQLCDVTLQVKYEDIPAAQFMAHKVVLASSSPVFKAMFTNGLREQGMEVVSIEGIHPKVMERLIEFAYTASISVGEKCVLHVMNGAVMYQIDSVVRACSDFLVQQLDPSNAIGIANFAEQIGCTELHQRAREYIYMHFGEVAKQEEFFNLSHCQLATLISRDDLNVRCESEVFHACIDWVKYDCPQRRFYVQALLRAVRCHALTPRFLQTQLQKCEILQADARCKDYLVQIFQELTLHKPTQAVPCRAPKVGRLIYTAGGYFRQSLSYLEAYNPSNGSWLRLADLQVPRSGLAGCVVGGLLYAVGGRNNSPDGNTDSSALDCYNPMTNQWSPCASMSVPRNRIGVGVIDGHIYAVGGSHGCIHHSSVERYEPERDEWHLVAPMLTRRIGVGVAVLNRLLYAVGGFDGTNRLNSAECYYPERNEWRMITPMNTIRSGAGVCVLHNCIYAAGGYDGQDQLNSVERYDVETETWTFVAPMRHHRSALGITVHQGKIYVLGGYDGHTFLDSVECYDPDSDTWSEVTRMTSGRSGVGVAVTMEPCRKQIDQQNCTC

Row | Variant | effect of a mutation on the interaction
1 | MMDLELPPPGLQSQQDMDLIDILWRQDIDLGVRREVFDFSQRQKDYELEKQKKLEKERQEQLQKEQEKAFFAQFQLDEETGEFLPIQPAQHIQTDTSGSASYSQVAHIPKQDALYFEDCMQLLAETFPFVDDHESLALDIPSHAESSVFTAPHQAQSLNSSLEAAMTDLSSIEQDMEQVWQELFSIPELQCLNTENKQLADTTAVPSPEATLTEMDSNYHFYSSISSLEKEVGNCGPHFLHGFEDSFSSILSTDDASQLTSLDSNPTLNTDFGDEFYSAFIAEPSDGGSMPSSAAISQSLSELLDGTIEGCDLSLCKAFNPKHAEGTMEFNDSDSGISLNTSPSRASPEHSVESSIYGDPPPGFSDSEMEELDSAPGSVKQNGPKAQPAHSPGDTVQPLSPAQGHSAPMRESQCENTTKKEVPVSPGHQKAPFTKDKHSSRLEAHLTRDELRAKALHIPFPVEKIINLPVDDFNEMMSKEQFNEAQLALIRDIRRRGKNKVAAQNCRKRKLENIVELEQDLGHLKDEREKLLREKGENDRNLHLLKRRLSTLYLEVFSMLRDEDGKPYSPSEYSLQQTRDGNVFLVPKSKKPDTKKN [S33R] | increasing interaction

Variants of: B1
Conditions: with keap1_mouse Keap1, Q9Z2X8
Remark: another data set of the same source

Row | Variant | effect of a mutation on the interaction
2 | MMDLELPPPGLQSQQDMDLIDILWRQDIDLGVSREVFDFSQRRKDYELEKQKKLEKERQEQLQKEQEKAFFAQFQLDEETGEFLPIQPAQHIQTDTSGSASYSQVAHIPKQDALYFEDCMQLLAETFPFVDDHESLALDIPSHAESSVFTAPHQAQSLNSSLEAAMTDLSSIEQDMEQVWQELFSIPELQCLNTENKQLADTTAVPSPEATLTEMDSNYHFYSSISSLEKEVGNCGPHFLHGFEDSFSSILSTDDASQLTSLDSNPTLNTDFGDEFYSAFIAEPSDGGSMPSSAAISQSLSELLDGTIEGCDLSLCKAFNPKHAEGTMEFNDSDSGISLNTSPSRASPEHSVESSIYGDPPPGFSDSEMEELDSAPGSVKQNGPKAQPAHSPGDTVQPLSPAQGHSAPMRESQCENTTKKEVPVSPGHQKAPFTKDKHSSRLEAHLTRDELRAKALHIPFPVEKIINLPVDDFNEMMSKEQFNEAQLALIRDIRRRGKNKVAAQNCRKRKLENIVELEQDLGHLKDEREKLLREKGENDRNLHLLKRRLSTLYLEVFSMLRDEDGKPYSPSEYSLQQTRDGNVFLVPKSKKPDTKKN [Q43R] | increasing interaction

Variants of: B1
Conditions: with keap1_mouse Keap1, Q9Z2X8
Remark: another data set of the same source

Row | Variant | effect of a mutation on the interaction
3 | MMDLELPPPGLQSQQDMDLIDILWRQDIDLGVSQEVFDFSQRQKDYELEKQKKLEKERQEQLQKEQEKAFFAQFQLDEETGEFLPIQPAQHIQTDTSGSASYSQVAHIPKQDALYFEDCMQLLAETFPFVDDHESLALDIPSHAESSVFTAPHQAQSLNSSLEAAMTDLSSIEQDMEQVWQELFSIPELQCLNTENKQLADTTAVPSPEATLTEMDSNYHFYSSISSLEKEVGNCGPHFLHGFEDSFSSILSTDDASQLTSLDSNPTLNTDFGDEFYSAFIAEPSDGGSMPSSAAISQSLSELLDGTIEGCDLSLCKAFNPKHAEGTMEFNDSDSGISLNTSPSRASPEHSVESSIYGDPPPGFSDSEMEELDSAPGSVKQNGPKAQPAHSPGDTVQPLSPAQGHSAPMRESQCENTTKKEVPVSPGHQKAPFTKDKHSSRLEAHLTRDELRAKALHIPFPVEKIINLPVDDFNEMMSKEQFNEAQLALIRDIRRRGKNKVAAQNCRKRKLENIVELEQDLGHLKDEREKLLREKGENDRNLHLLKRRLSTLYLEVFSMLRDEDGKPYSPSEYSLQQTRDGNVFLVPKSKKPDTKKN [R34Q] | disrupting interaction

Variants of: B1
Conditions: with keap1_mouse Keap1, Q9Z2X8
Remark: another data set of the same source

Row | Variant | effect of a mutation on the interaction
4 | MMDLELPPPGLQSQQDMDLIDIRWRQDIDLGVSREVFDFSQRQKDYELEKQKKLEKERQEQLQKEQEKAFFAQFQLDEETGEFLPIQPAQHIQTDTSGSASYSQVAHIPKQDALYFEDCMQLLAETFPFVDDHESLALDIPSHAESSVFTAPHQAQSLNSSLEAAMTDLSSIEQDMEQVWQELFSIPELQCLNTENKQLADTTAVPSPEATLTEMDSNYHFYSSISSLEKEVGNCGPHFLHGFEDSFSSILSTDDASQLTSLDSNPTLNTDFGDEFYSAFIAEPSDGGSMPSSAAISQSLSELLDGTIEGCDLSLCKAFNPKHAEGTMEFNDSDSGISLNTSPSRASPEHSVESSIYGDPPPGFSDSEMEELDSAPGSVKQNGPKAQPAHSPGDTVQPLSPAQGHSAPMRESQCENTTKKEVPVSPGHQKAPFTKDKHSSRLEAHLTRDELRAKALHIPFPVEKIINLPVDDFNEMMSKEQFNEAQLALIRDIRRRGKNKVAAQNCRKRKLENIVELEQDLGHLKDEREKLLREKGENDRNLHLLKRRLSTLYLEVFSMLRDEDGKPYSPSEYSLQQTRDGNVFLVPKSKKPDTKKN [L23R] | disrupting interaction
